How the values were obtained:
rhGH protein = rhGH protein (UniProt: P01241) (human) (UniProt P01241); experiment: ELISA on coated rhGH, anti-6*His HRP; sample after 0.5M NaOH 24h, against WT; set-up: unit not given beside the values
GH (GH stock solution) [1] = target: GH (GH stock solution) (UniProt P01241); experiment: affinity chromatography, VHH-conjugated medium loaded with GH stock solution; medium in 0.1M NaOH 0h
GH (GH stock solution) [2] = target: GH (GH stock solution) (UniProt P01241); experiment: affinity chromatography, VHH-conjugated medium loaded with GH stock solution; medium in 0.5M NaOH 0h
GH (GH stock solution) [3] = target: GH (GH stock solution) (UniProt P01241); experiment: affinity chromatography, VHH-conjugated medium loaded with GH stock solution; medium in 0.5M NaOH 6h
GH (GH stock solution) [4] = target: GH (GH stock solution) (UniProt P01241); experiment: affinity chromatography, VHH-conjugated medium loaded with GH stock solution; medium in 0.1M NaOH 24h
GH (GH stock solution) [5] = target: GH (GH stock solution) (UniProt P01241); experiment: affinity chromatography, VHH-conjugated medium loaded with GH stock solution; medium in 0.1M NaOH 32h
GH (GH stock solution) [6] = target: GH (GH stock solution) (UniProt P01241); experiment: affinity chromatography, VHH-conjugated medium loaded with GH stock solution; medium in 0.5M NaOH 24h
[7] = target: T1, rhGH protein (UniProt: P01241) (human, UniProt P01241 27-217); experiment: ELISA on coated rhGH; sample after 0.5M NaOH 24h
T1 construct: Coated at 5 ug/ml in the ELISA; also called human growth hormone
T1 sequence (P01241 27-217 limits assumed, one chain of several): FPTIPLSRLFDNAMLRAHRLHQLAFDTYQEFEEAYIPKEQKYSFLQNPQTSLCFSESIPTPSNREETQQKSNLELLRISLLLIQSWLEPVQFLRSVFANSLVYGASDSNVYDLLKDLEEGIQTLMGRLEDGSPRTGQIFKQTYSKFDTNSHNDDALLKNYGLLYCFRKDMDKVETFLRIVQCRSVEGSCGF

Chain of GH (GH stock solution) (P01241 27-217 limits assumed): as the sequence (P01241 27-217 limits assumed, one chain of several) above
Chain of rhGH protein (UniProt: P01241) (human) (UniProt P01241) (P01241 27-217 limits assumed, one chain of several): as above

EC50 against that of the WT after 0.5M alkali (% higher than WT) (rhGH protein) | binding result [7] | Binder | also measured
50 |  | M11 (First round) (VHH) VHH: QVQLVESGGGLAQAGGSLRLSCAVSGMPEFARAMGWFRQAPGKERELLAAIEGIGATTYYADSVKGRFTISRDDAANTVLLQMNSLKPDDTAVYYCAAAFSVTIPTRARHWVDWGQGTLVTVSS | 
50 |  | M45 (First round) (VHH) VHH: QVQLVESGGGLAQAGGSLRLSCAVSGMPEFARAMGWFRQAPGKERELLAAIEGIGATTYYADSVKGRFTISRDDAANTVLLQMNSLKPDDTAVYYCAAAFSVTIPTRARHWVDWGPGTLVTVSS | dynamic binding capacity at 10% breakthrough (GH (GH stock solution) [1]): 18.2; dynamic binding capacity at 10% breakthrough (GH (GH stock solution) [2]): 18.2; dynamic binding capacity at 10% breakthrough (GH (GH stock solution) [3]): 7.6; dynamic binding capacity at 10% breakthrough (GH (GH stock solution) [4]): 17.4; dynamic binding capacity at 10% breakthrough (GH (GH stock solution) [5]): 16.2; dynamic binding capacity at 10% breakthrough (GH (GH stock solution) [6]): 4.29
50 |  | M28 (First round) (VHH) VHH: QVQLVESGGGLAQAGGSLTLSCAVSGMPEFARAMGWFRQAPGKERELLAAIEGIGATTYYADSVKGRFTISRDDAANTVLLQMNSLKPDDTAVYYCAAAFSVTIPTRARHWVDWGPGTLVTVSS | 
50 |  | M22 (First round) (VHH) VHH: QVQLVESGGGKAQAGGSLRLSCAVSGMPEFARAMGWFRQAPGKERELLAAIEGIGATTYYADSVKGRFTISRDDAANTVLLQMNSLKPDDTAVYYCAAAFSVTIPTRARHWVDWGPGTLVTVSS | 
 | binds | M88 (Second round) (VHH, Entry already carries A57D; G134R; R110E; A55D; R100eE); tail DDDDK-SGGRGS-HHHHHH) VHH: QVQLVESGGGLAQAGGSLRLSCAVSGMPEFARAMGWFRQAPGKERELVAAIEGIGDTTYYADSVKGRFTISRDDAANTVLLQMNSLKPDDTAVYYCAAAFSVTIPTRAEHWVDWGPGTLVTVSS | 
 | binds | M81 (Second round) (VHH, Entry already carries A57D; G134R; P117Q; R100eE; P105Q); tail DDDDK-SGGRGS-HHHHHH) VHH: QVQLVESGGGLAQAGGSLRLSCAVSGMPEFARAMGWFRQAPGKERELLAAIEGIGDTTYYADSVKGRFTISRDDAANTVLLQMNSLKPDDTAVYYCAAAFSVTIPTRAEHWVDWGQGTLVTVSS | 
 | binds | M71 (Second round) (VHH, Entry already carries A57D; P117Q; R100eE; P105Q); tail DDDDK-SGGGGS-HHHHHH) VHH: QVQLVESGGGLAQAGGSLRLSCAVSGMPEFARAMGWFRQAPGKERELLAAIEGIGDTTYYADSVKGRFTISRDDAANTVLLQMNSLKPDDTAVYYCAAAFSVTIPTRAEHWVDWGQGTLVTVSS | 
 | binds | M89 (Second round) (VHH, Entry already carries A57D; G134R; R110E; R100eE; W100gF); tail DDDDK-SGGRGS-HHHHHH) VHH: QVQLVESGGGLAQAGGSLRLSCAVSGMPEFARAMGWFRQAPGKERELLAAIEGIGDTTYYADSVKGRFTISRDDAANTVLLQMNSLKPDDTAVYYCAAAFSVTIPTRAEHFVDWGPGTLVTVSS | 
 | binds | M77 (Second round) (VHH, Entry already carries A57D; R110E; R100eE; W100gF); tail DDDDK-SGGGGS-HHHHHH) VHH: QVQLVESGGGLAQAGGSLRLSCAVSGMPEFARAMGWFRQAPGKERELLAAIEGIGDTTYYADSVKGRFTISRDDAANTVLLQMNSLKPDDTAVYYCAAAFSVTIPTRAEHFVDWGPGTLVTVSS | 
 | binds | M79 (Second round) (VHH, Entry already carries A57D; R110E; A55D; R100eE); tail DDDDK-SGGGGS-HHHHHH) VHH: QVQLVESGGGLAQAGGSLRLSCAVSGMPEFARAMGWFRQAPGKERELVAAIEGIGDTTYYADSVKGRFTISRDDAANTVLLQMNSLKPDDTAVYYCAAAFSVTIPTRAEHWVDWGPGTLVTVSS | 
 | binds | M67 (Second round) (VHH, Entry already carries A15P; P105Q); tail DDDDK-SGGGGS-HHHHHH) VHH: QVQLVESGGGLAQPGGSLRLSCAVSGMPEFARAMGWFRQAPGKERELLAAIEGIGATTYYADSVKGRFTISRDDAANTVLLQMNSLKPDDTAVYYCAAAFSVTIPTRARHWVDWGQGTLVTVSS | dynamic binding capacity at 10% breakthrough (GH (GH stock solution) [1]): 15.9; dynamic binding capacity at 10% breakthrough (GH (GH stock solution) [2]): 15.9; dynamic binding capacity at 10% breakthrough (GH (GH stock solution) [3]): 10.2; dynamic binding capacity at 10% breakthrough (GH (GH stock solution) [4]): 16.2; dynamic binding capacity at 10% breakthrough (GH (GH stock solution) [5]): 14.9; dynamic binding capacity at 10% breakthrough (GH (GH stock solution) [6]): 4.23
 | binds | M70 (Second round) (VHH, Entry already carries A15P; R100eE); tail DDDDK-SGGGGS-HHHHHH) VHH: QVQLVESGGGLAQPGGSLRLSCAVSGMPEFARAMGWFRQAPGKERELLAAIEGIGATTYYADSVKGRFTISRDDAANTVLLQMNSLKPDDTAVYYCAAAFSVTIPTRAEHWVDWGPGTLVTVSS | 
 | binds | M72 (Second round) (VHH, Entry already carries A57D; D114Y; W100gF; D102Y); tail DDDDK-SGGGGS-HHHHHH) VHH: QVQLVESGGGLAQAGGSLRLSCAVSGMPEFARAMGWFRQAPGKERELLAAIEGIGDTTYYADSVKGRFTISRDDAANTVLLQMNSLKPDDTAVYYCAAAFSVTIPTRARHFVYWGPGTLVTVSS | 
 | binds | M82 (Second round) (VHH, Entry already carries A57D; G134R; R110E; R100eE; D102Y); tail DDDDK-SGGRGS-HHHHHH) VHH: QVQLVESGGGLAQAGGSLRLSCAVSGMPEFARAMGWFRQAPGKERELLAAIEGIGDTTYYADSVKGRFTISRDDAANTVLLQMNSLKPDDTAVYYCAAAFSVTIPTRAEHWVYWGPGTLVTVSS | 

The next lines start with the binder.

Binder | EC50 against that of the WT after 0.5M alkali (% higher than WT) (rhGH protein) | binding result [7] | also measured
M53 (Second round) (VHH, Entry already carries A57D; R100eE); tail DDDDK-SGGGGS-HHHHHH) VHH: QVQLVESGGGLAQAGGSLRLSCAVSGMPEFARAMGWFRQAPGKERELLAAIEGIGDTTYYADSVKGRFTISRDDAANTVLLQMNSLKPDDTAVYYCAAAFSVTIPTRAEHWVDWGPGTLVTVSS |  | binds | 
M33 (First round) (VHH) VHH: QVQLVESGGGLAQAGGSLRLSCAVSGMPEFARAMGWFRQAPGKERELLAAIEGIGDTTYYADSVKGRFTISRDDAANTVLLQMNSLKPDDTAVYYCAAAFSVTIPTRARHWVDWGPGTLVTVSS | 50 |  | 
M34 (First round) (VHH) VHH: QVQLVESGGGLAQAGGSLRLSCAVSGMPEFARAMGWFRQAPGKERELLAAIEGIGATTYYADSVKGRFTISRDDAASTVLLQMNSLKPDDTAVYYCAAAFSVTIPTRARHWVDWGPGTLVTVSS | 50 |  | 
M24 (First round) (VHH) VHH: QVQLVESGGGLAQAGGSLRLSCAVSGMPEFARAMGWFRQAPGKERELLAAIEGIGATTYYADSVKGRFTISRDDAANTVLLQMNSLKPDDTAVYYCAAAFSVTIPTRARHFVDWGPGTLVTVSS | 50 |  | 
M64 (Second round) (VHH, Entry already carries A15P; tail DDDDK-SGGRGS-HHHHHH) VHH: QVQLVESGGGLAQPGGSLRLSCAVSGMPEFARAMGWFRQAPGKERELLAAIEGIGATTYYADSVKGRFTISRDDAANTVLLQMNSLKPDDTAVYYCAAAFSVTIPTRARHWVDWGPGTLVTVSS | 50 | binds | 
M66 (Second round) (VHH, Entry already carries P29T; P28T); tail DDDDK-SGGGGS-HHHHHH) VHH: QVQLVESGGGLAQPGGSLRLSCAVSGMTEFARAMGWFRQAPGKERELLAAIEGIGATTYYADSVKGRFTISRDDAANTVLLQMNSLKPDDTAVYYCAAAFSVTIPTRARHWVDWGPGTLVTVSS |  | binds | 
M75 (Second round) (VHH, Entry already carries A57D; R110E; R100eE; D102Y); tail DDDDK-SGGGGS-HHHHHH) VHH: QVQLVESGGGLAQAGGSLRLSCAVSGMPEFARAMGWFRQAPGKERELLAAIEGIGDTTYYADSVKGRFTISRDDAANTVLLQMNSLKPDDTAVYYCAAAFSVTIPTRAEHWVYWGPGTLVTVSS |  | binds | 
M69 (Second round) (VHH, Entry already carries P29T; tail DDDDK-SGGRGS-HHHHHH) VHH: QVQLVESGGGLAQAGGSLRLSCAVSGMTEFARAMGWFRQAPGKERELLAAIEGIGATTYYADSVKGRFTISRDDAANTVLLQMNSLKPDDTAVYYCAAAFSVTIPTRARHWVDWGPGTLVTVSS | 50 | binds | 
M68 (Second round) (VHH, Entry already carries A15P; R19T); tail DDDDK-SGGGGS-HHHHHH) VHH: QVQLVESGGGLAQPGGSLTLSCAVSGMPEFARAMGWFRQAPGKERELLAAIEGIGATTYYADSVKGRFTISRDDAANTVLLQMNSLKPDDTAVYYCAAAFSVTIPTRARHWVDWGPGTLVTVSS |  | binds | dynamic binding capacity at 10% breakthrough (GH (GH stock solution) [1]): 15.9; dynamic binding capacity at 10% breakthrough (GH (GH stock solution) [2]): 15.3; dynamic binding capacity at 10% breakthrough (GH (GH stock solution) [3]): 12.2; dynamic binding capacity at 10% breakthrough (GH (GH stock solution) [4]): 16.2; dynamic binding capacity at 10% breakthrough (GH (GH stock solution) [5]): 15.4; dynamic binding capacity at 10% breakthrough (GH (GH stock solution) [6]): 5.41
M83 (Second round) (VHH, Entry already carries A57D; P117Q; R110E; R100eE; W100gF; P105Q); tail DDDDK-SGGGGS-HHHHHH) VHH: QVQLVESGGGLAQAGGSLRLSCAVSGMPEFARAMGWFRQAPGKERELLAAIEGIGDTTYYADSVKGRFTISRDDAANTVLLQMNSLKPDDTAVYYCAAAFSVTIPTRAEHFVDWGQGTLVTVSS |  | binds | 
M59 (Second round) (VHH, Entry already carries A57D; A55D); tail DDDDK-SGGGGS-HHHHHH) VHH: QVQLVESGGGLAQAGGSLRLSCAVSGMTEFARAMGWFRQAPGKERELLAAIEGIGDTTYYADSVKGRFTISRDDAANTVLLQMNSLKPDDTAVYYCAAAFSVTIPTRARHWVDWGPGTLVTVSS |  | binds | 
M76 (Second round) (VHH, Entry already carries A57D; G134R; W100gF); tail DDDDK-SGGRGS-HHHHHH) VHH: QVQLVESGGGLAQAGGSLRLSCAVSGMPEFARAMGWFRQAPGKERELLAAIEGIGDTTYYADSVKGRFTISRDDAANTVLLQMNSLKPDDTAVYYCAAAFSVTIPTRARHFVDWGPGTLVTVSS |  | binds | 
